Reference: the supplement of paper PMC9112550, “Optimization of the antimicrobial peptide Bac7 by deep mutational scanning” (BMC Biology, 2022)

tested on: Escherichia coli TOP10; assay: shrunken log2 fold change of peptide-encoding DNA abundance (4.5 h post-induction vs induction); higher = less antimicrobial activity (less host growth inhibition); details: time post-induction: 4.5 h; library: site-saturation at positions 5, 18, 19, 20
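Note: peptides expressed intracellularly from a pBAD plasmid library in pooled LB shake-flask culture, induced with 0.3% L-arabinose, DNA abundance read by NGS, three biological replicates, DESeq2 with apeglm shrinkage.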

Row | Sequence | shrunken log2 fold change
1 | RRIRQRPPRLPRPRPRPCMEPRP | -0.1
2 | RRIRHRPPRLPRPRPRPWYVPRP | 0.00296
3 | RRIRGRPPRLPRPRPRPDLRPRP | 0.0067
4 | RRIRDRPPRLPRPRPRPKNEPRP | -0.00834
5 | RRIRCRPPRLPRPRPRPMKCPRP | -0.173
6 | RRIRWRPPRLPRPRPRPCPCPRP | -0.273
7 | RRIRGRPPRLPRPRPRPCNDPRP | 0.376
8 | RRIRNRPPRLPRPRPRPPEPPRP | 0.184
9 | RRIRFRPPRLPRPRPRPNFIPRP | -0.308
10 | RRIRTRPPRLPRPRPRPGNYPRP | 0.0108
11 | RRIRHRPPRLPRPRPRPQPQPRP | -0.00539
12 | RRIRLRPPRLPRPRPRPICIPRP | -0.579
13 | RRIRCRPPRLPRPRPRPYKVPRP | -1.05
14 | RRIRIRPPRLPRPRPRPQDWPRP | -0.344
15 | RRIRGRPPRLPRPRPRPHRYPRP | 0.0948
16 | RRIRARPPRLPRPRPRPCTPPRP | -0.0509
17 | RRIRPRPPRLPRPRPRPGVDPRP | 0.0426
18 | RRIRWRPPRLPRPRPRPRTIPRP | -0.0129
19 | RRIRMRPPRLPRPRPRPHRQPRP | 0.532
20 | RRIRNRPPRLPRPRPRPYKRPRP | -1.27
21 | RRIRARPPRLPRPRPRPNFLPRP | 0.0215
22 | RRIRLRPPRLPRPRPRPEPVPRP | 2.62
23 | RRIRARPPRLPRPRPRPSIYPRP | -0.404
24 | RRIRHRPPRLPRPRPRPDKIPRP | -0.042
25 | RRIRCRPPRLPRPRPRPDNQPRP | -0.696

Row | Sequence | shrunken log2 fold change
26 | RRIRTRPPRLPRPRPRPPFAPRP | 0.195
27 | RRIRYRPPRLPRPRPRPSHGPRP | -0.274
28 | RRIRPRPPRLPRPRPRPQSRPRP | 0.161
29 | RRIRVRPPRLPRPRPRPKFFPRP | -0.0182
30 | RRIRRRPPRLPRPRPRPQIAPRP | 0.31
31 | RRIRFRPPRLPRPRPRPDNVPRP | -0.336
32 | RRIRRRPPRLPRPRPRPKEMPRP | 0.0252
33 | RRIRLRPPRLPRPRPRPCSAPRP | -0.372
34 | RRIRFRPPRLPRPRPRPRMAPRP | 0.375
35 | RRIRGRPPRLPRPRPRPRAPPRP | 1.05
36 | RRIRPRPPRLPRPRPRPRAHPRP | 0.345
37 | RRIRWRPPRLPRPRPRPRPPPRP | 1.11
38 | RRIRLRPPRLPRPRPRPDNSPRP | -0.0436
39 | RRIRLRPPRLPRPRPRPGMDPRP | 0.126
40 | RRIRSRPPRLPRPRPRPRAYPRP | 0.031
41 | RRIRWRPPRLPRPRPRPDTKPRP | 0.00587
42 | RRIRRRPPRLPRPRPRPDAEPRP | 1.62
43 | RRIRNRPPRLPRPRPRPGEEPRP | -0.0107
44 | RRIRKRPPRLPRPRPRPMATPRP | 0.329
45 | RRIRQRPPRLPRPRPRPMHMPRP | -0.369
46 | RRIRYRPPRLPRPRPRPKEAPRP | -0.0135
47 | RRIRTRPPRLPRPRPRPPNLPRP | 0.0303
48 | RRIRGRPPRLPRPRPRPSFCPRP | 0.348
49 | RRIRARPPRLPRPRPRPCPAPRP | 0.209
50 | RRIRHRPPRLPRPRPRPCDIPRP | -0.0274

Row | Sequence | shrunken log2 fold change
51 | RRIRERPPRLPRPRPRPTLRPRP | 0.383
52 | RRIRERPPRLPRPRPRPLTLPRP | -0.271
53 | RRIRDRPPRLPRPRPRPGMDPRP | 0.216
54 | RRIRFRPPRLPRPRPRPFAVPRP | -0.354
55 | RRIRCRPPRLPRPRPRPFVEPRP | -0.507
56 | RRIRGRPPRLPRPRPRPGGQPRP | 0.672
57 | RRIRNRPPRLPRPRPRPSHAPRP | -0.859
58 | RRIRIRPPRLPRPRPRPKKLPRP | -0.219
59 | RRIRQRPPRLPRPRPRPSQKPRP | 0.0595
60 | RRIRWRPPRLPRPRPRPTYLPRP | 0.0592
61 | RRIRQRPPRLPRPRPRPICAPRP | 0.36
62 | RRIRCRPPRLPRPRPRPLIRPRP | -0.109
63 | RRIRLRPPRLPRPRPRPSFYPRP | -0.7
64 | RRIRYRPPRLPRPRPRPSEQPRP | -0.0359
65 | RRIRYRPPRLPRPRPRPNGYPRP | 0.122
66 | RRIRMRPPRLPRPRPRPVTKPRP | 0.253
67 | RRIRARPPRLPRPRPRPFIYPRP | -0.264
68 | RRIRERPPRLPRPRPRPKQVPRP | -0.131
69 | RRIRFRPPRLPRPRPRPRHPPRP | 0.0568
70 | RRIRTRPPRLPRPRPRPEQQPRP | 0.436
71 | RRIRSRPPRLPRPRPRPRPEPRP | 0.507
72 | RRIRWRPPRLPRPRPRPEEKPRP | 0.584
73 | RRIRRRPPRLPRPRPRPPGLPRP | 0.658
74 | RRIRIRPPRLPRPRPRPHCYPRP | -0.104
75 | RRIRVRPPRLPRPRPRPTQIPRP | 0.149

Row | Sequence | shrunken log2 fold change
76 | RRIRQRPPRLPRPRPRPQFTPRP | -0.177
77 | RRIRLRPPRLPRPRPRPVRMPRP | 0.494
78 | RRIRYRPPRLPRPRPRPIKSPRP | -0.616
79 | RRIRSRPPRLPRPRPRPVPPPRP | 0.329
80 | RRIRARPPRLPRPRPRPDGLPRP | 0.292
81 | RRIRSRPPRLPRPRPRPRQDPRP | 0.127
82 | RRIRFRPPRLPRPRPRPMYEPRP | -0.309
83 | RRIRYRPPRLPRPRPRPGWNPRP | -0.182
84 | RRIRTRPPRLPRPRPRPNGYPRP | -0.12
85 | RRIRCRPPRLPRPRPRPVACPRP | -0.0888
86 | RRIRRRPPRLPRPRPRPVAKPRP | 0.386
87 | RRIRMRPPRLPRPRPRPSHPPRP | -0.0222
88 | RRIRWRPPRLPRPRPRPFYHPRP | -0.0855
89 | RRIRDRPPRLPRPRPRPECPPRP | 0.0118
90 | RRIRCRPPRLPRPRPRPMYFPRP | -0.796
91 | RRIRMRPPRLPRPRPRPQPAPRP | 1.55
92 | RRIRARPPRLPRPRPRPARSPRP | 0.31
93 | RRIRSRPPRLPRPRPRPTFYPRP | -0.231
94 | RRIRWRPPRLPRPRPRPDTPPRP | 0.126
95 | RRIRHRPPRLPRPRPRPGWCPRP | 0.399
96 | RRIRFRPPRLPRPRPRPNVLPRP | -0.323
97 | RRIRARPPRLPRPRPRPQWIPRP | -0.0374
98 | RRIRCRPPRLPRPRPRPMTVPRP | -0.0302
99 | RRIRERPPRLPRPRPRPDASPRP | 0.0331
100 | RRIRDRPPRLPRPRPRPAMQPRP | 0.194

Row | Sequence | shrunken log2 fold change
101 | RRIRMRPPRLPRPRPRPNCAPRP | 0.317
102 | RRIRKRPPRLPRPRPRPSGRPRP | 0.288
103 | RRIRTRPPRLPRPRPRPAERPRP | -0.104
104 | RRIRYRPPRLPRPRPRPTLPPRP | -0.135
105 | RRIRQRPPRLPRPRPRPIVHPRP | -0.265
106 | RRIRIRPPRLPRPRPRPFADPRP | -0.26
107 | RRIRLRPPRLPRPRPRPNQGPRP | -0.148
108 | RRIRYRPPRLPRPRPRPHHRPRP | -0.306
109 | RRIRARPPRLPRPRPRPLQMPRP | 0.629
110 | RRIRTRPPRLPRPRPRPCMFPRP | -0.515
111 | RRIRSRPPRLPRPRPRPYFTPRP | 1.09
112 | RRIRHRPPRLPRPRPRPAQHPRP | -0.14
113 | RRIRNRPPRLPRPRPRPKHIPRP | -0.438
114 | RRIRDRPPRLPRPRPRPGFQPRP | 0.252
115 | RRIRTRPPRLPRPRPRPGGHPRP | 0.0329
116 | RRIRDRPPRLPRPRPRPSIHPRP | -0.123
117 | RRIRKRPPRLPRPRPRPQLEPRP | 0.327
118 | RRIRNRPPRLPRPRPRPEHVPRP | -0.0119
119 | RRIRGRPPRLPRPRPRPMHHPRP | 0.533
120 | RRIRDRPPRLPRPRPRPTLKPRP | -0.0215
121 | RRIRGRPPRLPRPRPRPFAQPRP | 0.456
122 | RRIRARPPRLPRPRPRPQWEPRP | 0.196
123 | RRIRQRPPRLPRPRPRPHCEPRP | -0.0142
124 | RRIRPRPPRLPRPRPRPFVYPRP | -0.706
125 | RRIRIRPPRLPRPRPRPIIGPRP | -0.13

Row | Sequence | shrunken log2 fold change
126 | RRIRKRPPRLPRPRPRPHGKPRP | 0.109
127 | RRIRSRPPRLPRPRPRPGWFPRP | 0.44
128 | RRIRWRPPRLPRPRPRPLWEPRP | 0.0357
129 | RRIRSRPPRLPRPRPRPKKVPRP | -0.00648
130 | RRIRLRPPRLPRPRPRPIWYPRP | -0.645
131 | RRIRQRPPRLPRPRPRPNFTPRP | -0.186
132 | RRIRQRPPRLPRPRPRPEQDPRP | 0.311
133 | RRIRRRPPRLPRPRPRPNQQPRP | -0.0676
134 | RRIRERPPRLPRPRPRPYLLPRP | -0.165
135 | RRIRQRPPRLPRPRPRPVFAPRP | 0.164
136 | RRIRYRPPRLPRPRPRPFNPPRP | -0.0161
137 | RRIRSRPPRLPRPRPRPLIYPRP | -0.546
138 | RRIRHRPPRLPRPRPRPPMMPRP | 0.03
139 | RRIRERPPRLPRPRPRPPPRPRP | 0.837
140 | RRIRPRPPRLPRPRPRPGNFPRP | -0.25
141 | RRIRARPPRLPRPRPRPNQWPRP | 0.724
142 | RRIRMRPPRLPRPRPRPEPWPRP | 1.3
143 | RRIRARPPRLPRPRPRPGTEPRP | 0.376
144 | RRIRVRPPRLPRPRPRPLMEPRP | -0.21
145 | RRIRLRPPRLPRPRPRPAWGPRP | 0.444
146 | RRIRQRPPRLPRPRPRPPCKPRP | 0.0303
147 | RRIRRRPPRLPRPRPRPAFFPRP | 0.58
148 | RRIRERPPRLPRPRPRPNMMPRP | -0.612
149 | RRIRARPPRLPRPRPRPDTRPRP | 0.0596
150 | RRIRCRPPRLPRPRPRPYGMPRP | -0.0815
